Reference: patent US6682898B2, “High-throughput screening assays for modulators of STAT4 activity” (Tularik Inc., priority 1998, dated 2004)
Non-standard residues stand in square brackets, D forms with d. Residues, ends and D or L forms follow the SMILES beside them. No end group written: not given here. pY = N[C@@H](Cc1ccc(OP(=O)(O)O)cc1)C(=O)O

Experiments:
STAT6 [1] = biological target: T1, STAT6 (Homo sapiens, UniProt P42226); assay: STAT6 binding to phosphotyrosine receptor peptides (IC50 / binding affinity)
T1 sequence (P42226 1-847): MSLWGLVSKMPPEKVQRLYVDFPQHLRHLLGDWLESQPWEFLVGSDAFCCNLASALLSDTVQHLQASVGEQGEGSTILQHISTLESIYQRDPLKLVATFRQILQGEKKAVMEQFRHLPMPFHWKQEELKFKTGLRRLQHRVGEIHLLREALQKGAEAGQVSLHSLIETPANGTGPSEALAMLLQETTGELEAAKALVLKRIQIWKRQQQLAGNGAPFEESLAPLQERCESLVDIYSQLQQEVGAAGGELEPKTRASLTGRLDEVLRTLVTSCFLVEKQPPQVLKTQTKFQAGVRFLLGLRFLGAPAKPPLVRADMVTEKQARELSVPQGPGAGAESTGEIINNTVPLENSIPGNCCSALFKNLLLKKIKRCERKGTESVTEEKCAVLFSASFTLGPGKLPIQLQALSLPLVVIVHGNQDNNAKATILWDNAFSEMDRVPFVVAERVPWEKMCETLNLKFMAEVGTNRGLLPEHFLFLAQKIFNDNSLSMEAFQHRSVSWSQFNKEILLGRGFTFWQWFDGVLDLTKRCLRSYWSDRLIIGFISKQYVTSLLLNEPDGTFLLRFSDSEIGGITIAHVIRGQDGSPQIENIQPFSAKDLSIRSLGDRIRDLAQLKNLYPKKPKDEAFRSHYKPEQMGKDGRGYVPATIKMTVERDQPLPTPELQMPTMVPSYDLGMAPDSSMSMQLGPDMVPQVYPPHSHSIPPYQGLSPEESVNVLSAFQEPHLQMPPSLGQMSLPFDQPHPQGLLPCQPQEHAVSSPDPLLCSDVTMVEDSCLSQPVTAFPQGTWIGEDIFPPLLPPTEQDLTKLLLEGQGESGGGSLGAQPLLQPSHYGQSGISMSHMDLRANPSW

STAT6 [2] = biological target: T1, STAT6; assay: Chemiluminescence binding assay, signal to noise, STAT6
Experimental: (§1) The assays of the invention can be conducted as an ELISA assay, using a 96-well microplate format or a larger format if desired. In one embodiment, a phosphotyrosine-containing receptor peptide is incubated with a protein which contains an SH2 domain (e.g., a STAT polypeptide) to provide opportunity for the SH2 domain containing protein to bind the peptide. The peptide is preferably bound to a tag, e.g., biotin, at the amino terminus of the peptide. There can be a spacer between the tag and the peptide. The solution is placed in wells of a 96-well microplate that are coated with a tag binder, e.g., streptavidin. Reduction of background is achieved by incubating, in a separate reaction, a primary antibody specific for the SH2 domain containing protein and a secondary antibody specific for the first antibody which is to bind to the SH2 domain containing protein. The secondary antibody has conjugated to it a substrate for detection. The antibodies bind and form a binding pair of antibodies Ab1 and Ab2. Ab1 remains available to bind the SH2 domain containing protein for which it is specific. Ab2 remains conjugated to a substrate for chemiluminescence detection later.
(§2) The solution containing binding pairs of primary and secondary antibodies bound together is then added to the microwells that already contain the bound streptavidin, biotinylated receptor peptide and an SH2 domain containing protein bound to the receptor peptide. […]
(§3) An alternate method for conducting the assay involves preincubating the SH2 domain containing protein with the primary antibody that is specific for the SH2 domain containing protein. […] After allowing time for the SH2-antibody complex to bind the biotinylated peptide bound to streptavidin, a second antibody specific for the first antibody is added, and the presence of the second antibody is detected as before, using a chemiluminescence reaction with either alkaline phosphatase detection or horse radish peroxidase detection. […]

STAT6 [3] = biological target: T1, STAT6; assay: SH2 domain protein binding assay, STAT6; parameters: key: +++ = high affinity binding
Excerpt: (§4) This Example describes binding assays for various proteins that contain SH2 domains.

STAT1 = biological target: T2, STAT1 (Homo sapiens, UniProt P42224); assay: Chemiluminescence binding assay, signal to noise, STAT1; parameters: key: high signal relative to background = + + + +
T2 sequence (P42224 1-750): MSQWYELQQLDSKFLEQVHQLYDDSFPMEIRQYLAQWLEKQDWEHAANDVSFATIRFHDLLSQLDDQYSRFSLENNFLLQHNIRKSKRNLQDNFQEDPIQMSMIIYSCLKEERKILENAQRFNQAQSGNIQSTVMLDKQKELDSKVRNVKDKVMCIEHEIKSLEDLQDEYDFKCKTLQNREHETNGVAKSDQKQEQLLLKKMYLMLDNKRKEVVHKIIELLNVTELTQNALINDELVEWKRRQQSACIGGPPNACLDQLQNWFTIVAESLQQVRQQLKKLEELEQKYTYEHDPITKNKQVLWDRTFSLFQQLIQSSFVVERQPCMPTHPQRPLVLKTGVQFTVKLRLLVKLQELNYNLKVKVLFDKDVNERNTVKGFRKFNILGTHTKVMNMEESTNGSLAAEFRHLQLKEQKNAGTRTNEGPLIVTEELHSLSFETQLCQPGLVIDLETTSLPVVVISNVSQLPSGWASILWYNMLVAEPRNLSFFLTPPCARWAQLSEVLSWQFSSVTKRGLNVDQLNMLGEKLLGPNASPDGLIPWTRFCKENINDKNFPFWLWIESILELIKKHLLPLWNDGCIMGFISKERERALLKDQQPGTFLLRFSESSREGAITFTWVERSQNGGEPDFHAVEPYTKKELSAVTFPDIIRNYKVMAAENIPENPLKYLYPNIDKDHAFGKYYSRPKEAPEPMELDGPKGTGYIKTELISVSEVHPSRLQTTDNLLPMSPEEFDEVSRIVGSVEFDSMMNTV
Experimental: as §1, §2, §3

STAT4 [4] = biological target: T3, STAT4 (Homo sapiens, UniProt Q14765); assay: Chemiluminescence binding assay, signal to noise, STAT4; parameters: key: high signal relative to background = + + + +
T3 sequence (Q14765 1-748): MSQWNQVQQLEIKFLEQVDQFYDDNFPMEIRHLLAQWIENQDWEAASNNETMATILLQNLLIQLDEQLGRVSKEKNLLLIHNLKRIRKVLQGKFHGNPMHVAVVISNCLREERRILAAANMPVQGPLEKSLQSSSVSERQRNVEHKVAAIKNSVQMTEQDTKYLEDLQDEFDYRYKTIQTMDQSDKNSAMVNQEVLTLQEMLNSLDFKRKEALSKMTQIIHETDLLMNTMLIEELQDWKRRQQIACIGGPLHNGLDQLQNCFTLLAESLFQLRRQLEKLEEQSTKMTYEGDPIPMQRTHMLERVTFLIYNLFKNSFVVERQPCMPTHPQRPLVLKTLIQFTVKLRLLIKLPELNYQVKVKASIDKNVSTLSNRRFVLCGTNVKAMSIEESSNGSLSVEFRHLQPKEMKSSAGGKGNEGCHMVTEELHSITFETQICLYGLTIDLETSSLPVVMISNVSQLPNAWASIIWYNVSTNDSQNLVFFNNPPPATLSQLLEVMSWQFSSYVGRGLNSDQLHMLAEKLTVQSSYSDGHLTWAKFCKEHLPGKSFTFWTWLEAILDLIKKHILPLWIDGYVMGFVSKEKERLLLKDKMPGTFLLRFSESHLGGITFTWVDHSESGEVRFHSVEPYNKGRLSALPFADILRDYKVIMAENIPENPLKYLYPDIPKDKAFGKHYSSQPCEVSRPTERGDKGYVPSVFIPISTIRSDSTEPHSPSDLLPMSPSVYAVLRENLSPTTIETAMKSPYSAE
Experimental: as §1, §2, §3

Src = Src (Homo sapiens, UniProt P12931); assay: SH2 domain protein binding assay, Src; parameters: key: +++ = high affinity binding
Excerpt: as §4

PLCγ = assay: SH2 domain protein binding assay, PLCγ; parameters: key: +++ = high affinity binding
Excerpt: as §4

P85-PI3K = P85-PI3K (Homo sapiens, UniProt P27986); assay: SH2 domain protein binding assay, P85-PI3K; parameters: key: +++ = high affinity binding
P85-PI3K, sequence (P27986 whole entry, the tested form may be a part): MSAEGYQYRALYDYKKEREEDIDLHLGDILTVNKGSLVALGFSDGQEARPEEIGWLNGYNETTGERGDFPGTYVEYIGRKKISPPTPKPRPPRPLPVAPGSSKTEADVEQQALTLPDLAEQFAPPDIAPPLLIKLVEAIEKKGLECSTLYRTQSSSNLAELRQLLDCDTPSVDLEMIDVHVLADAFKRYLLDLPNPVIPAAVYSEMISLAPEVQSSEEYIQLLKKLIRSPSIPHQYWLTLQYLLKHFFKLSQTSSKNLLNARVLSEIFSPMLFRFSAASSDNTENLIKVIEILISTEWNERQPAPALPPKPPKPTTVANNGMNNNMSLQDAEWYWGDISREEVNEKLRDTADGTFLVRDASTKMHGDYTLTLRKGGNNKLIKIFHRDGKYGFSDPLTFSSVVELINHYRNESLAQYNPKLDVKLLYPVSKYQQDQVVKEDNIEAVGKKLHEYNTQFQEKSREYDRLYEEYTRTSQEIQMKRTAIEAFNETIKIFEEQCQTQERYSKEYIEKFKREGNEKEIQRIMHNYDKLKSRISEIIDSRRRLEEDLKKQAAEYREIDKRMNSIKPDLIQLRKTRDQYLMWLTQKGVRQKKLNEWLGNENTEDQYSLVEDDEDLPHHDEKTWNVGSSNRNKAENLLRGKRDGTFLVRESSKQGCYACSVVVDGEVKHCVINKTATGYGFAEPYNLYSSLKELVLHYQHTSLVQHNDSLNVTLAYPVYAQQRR
Excerpt: as §4

STAT1 protein [5] = biological target: T4, STAT1 protein (UniProt P42224 1-750, limits assumed); assay: concentration at 50% binding of the STAT protein to the phosphotyrosine peptide (Example 4)
T4 sequence (looked up): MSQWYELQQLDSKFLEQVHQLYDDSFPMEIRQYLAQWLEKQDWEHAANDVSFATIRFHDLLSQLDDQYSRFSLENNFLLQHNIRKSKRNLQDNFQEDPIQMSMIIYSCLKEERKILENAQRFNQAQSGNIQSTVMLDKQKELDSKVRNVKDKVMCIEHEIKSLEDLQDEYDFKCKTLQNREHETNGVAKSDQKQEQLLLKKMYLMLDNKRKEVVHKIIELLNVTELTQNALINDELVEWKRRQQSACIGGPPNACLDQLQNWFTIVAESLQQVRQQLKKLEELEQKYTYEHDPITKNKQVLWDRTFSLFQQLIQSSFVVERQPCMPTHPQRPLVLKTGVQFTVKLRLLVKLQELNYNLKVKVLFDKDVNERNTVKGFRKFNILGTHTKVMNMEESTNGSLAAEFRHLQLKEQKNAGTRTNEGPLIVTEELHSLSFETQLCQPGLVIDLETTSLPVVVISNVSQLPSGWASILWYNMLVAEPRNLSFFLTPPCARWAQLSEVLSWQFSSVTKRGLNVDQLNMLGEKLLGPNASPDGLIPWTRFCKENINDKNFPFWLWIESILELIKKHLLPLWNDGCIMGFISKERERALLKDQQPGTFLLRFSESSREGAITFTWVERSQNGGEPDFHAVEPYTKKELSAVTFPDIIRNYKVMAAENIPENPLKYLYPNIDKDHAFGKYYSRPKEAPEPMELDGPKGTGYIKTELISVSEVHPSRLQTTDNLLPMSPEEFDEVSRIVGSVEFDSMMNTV

STAT4 [6] = biological target: T5, STAT4 (UniProt Q14765 1-748, limits assumed); assay: as above
T5 construct: also called STAT4 polypeptide
T5 sequence (looked up): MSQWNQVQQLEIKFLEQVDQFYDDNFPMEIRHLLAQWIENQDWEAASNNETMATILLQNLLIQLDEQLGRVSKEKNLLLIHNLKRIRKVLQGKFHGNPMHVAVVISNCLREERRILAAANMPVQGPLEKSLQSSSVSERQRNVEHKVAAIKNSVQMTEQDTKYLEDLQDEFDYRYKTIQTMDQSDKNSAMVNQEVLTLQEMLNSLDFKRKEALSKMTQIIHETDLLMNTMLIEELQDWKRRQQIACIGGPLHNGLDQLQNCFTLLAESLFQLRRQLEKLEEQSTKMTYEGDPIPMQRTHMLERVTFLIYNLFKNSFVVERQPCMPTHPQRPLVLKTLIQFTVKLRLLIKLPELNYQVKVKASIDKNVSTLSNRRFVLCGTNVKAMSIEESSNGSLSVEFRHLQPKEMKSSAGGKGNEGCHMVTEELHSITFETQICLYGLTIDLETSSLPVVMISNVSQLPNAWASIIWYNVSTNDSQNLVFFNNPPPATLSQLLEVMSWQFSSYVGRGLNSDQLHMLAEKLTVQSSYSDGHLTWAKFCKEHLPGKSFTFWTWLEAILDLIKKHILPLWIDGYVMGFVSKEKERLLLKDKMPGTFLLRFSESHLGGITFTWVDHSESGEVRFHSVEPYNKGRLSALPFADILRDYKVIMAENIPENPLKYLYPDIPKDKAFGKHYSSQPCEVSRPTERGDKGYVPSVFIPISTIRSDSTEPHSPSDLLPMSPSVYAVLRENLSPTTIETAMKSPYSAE

STAT1 protein [7] = biological target: T4, STAT1 protein; assay: method not stated; told of the SH2 domain of STAT1 at the start of Example 1

Q: What does the source list for `CC[C@H](C)[C@H](NC(=O)[C@H](CC(C)C)NC(=O)[C@H](CC(=O)O)NC(=O)[C@H](CCC(N)=O)NC(=O)[C@H](Cc1c[nH]c2ccccc12)NC(=O)[C@@H]1CCCN1C(=O)[C@@H](NC(=O)[C@H](Cc1ccc(OP(=O)(O)O)cc1)NC(=O)CNC(=O)[C@@H](N)CCC(=O)O)C(C)C)C(=O)O` [EGY^PVPWQDLI] (HELM PEPTIDE1{E.G.[O=C([C@H](Cc1ccc(OP(=O)(O)O)cc1)N[*:1])[*:2]].V.P.W.Q.D.L.I}$$$$V2.0)?
A: IC50 (STAT6 [1]): 0.61 µM; signal relative to background, STAT6 (STAT6 [2]; Ab1/Ab2 preincubation): + + + + +; signal relative to background, STAT6 (STAT6 [2]; STAT4/Ab preincubation (so in the source)): + + + + +; signal relative to background, STAT6 (STAT6 [2]; Standard assay): + +

Q: “GYKPFQDLI (G[pY]KPFQDLI) [phosphotyrosine-containing peptide ligand, Y is phosphotyrosine]” was tested. Which “binding to STAT6” value (STAT6 [3]) did it give?
A: The value was “+++”.

Q: Which results are given for “GY^PDMPHVL: phosphotyrosine receptor peptide for STAT4 (also binds STAT1) (G[pY]DMPHVL)”?
A: signal relative to background, STAT1 (STAT1; Ab1/Ab2 preincubation): + + + +; signal relative to background, STAT1 (STAT1; STAT1/Ab preincubation): + + + +; signal relative to background, STAT1 (STAT1; Standard assay): + +; signal relative to background, STAT4 (STAT4 [4]; Ab1/Ab2 preincubation): + + + +; signal relative to background, STAT4 (STAT4 [4]; STAT4/Ab preincubation): + + + +; signal relative to background, STAT4 (STAT4 [4]; Standard assay): + +

Q: “YEEI: phosphotyrosine-containing peptide ligand” was tested. Which “binding to Src” value (Src) did it give?
A: Its value is “+++”.

Q: “YITPLP: phosphotyrosine-containing peptide ligand ([pY]ITPLP)” was tested. Which “binding to PLCγ” value (PLCγ) did it give?
A: The value was “+++”.

Q: For “YMDM: phosphotyrosine-containing peptide ligand ([pY]MDM)”, which “binding to P85-PI3K” value (P85-PI3K) is on record?
A: The value was “+++”.

Q: With “YMNM: phosphotyrosine-containing peptide ligand ([pY]MNM)” as the molecule, how does the “binding to P85-PI3K” value (P85-PI3K) read?
A: The value was “+++”.

B1: SFGY*DKPHVL (peptide)
peptide: SFG[pY]DKPHVL
Q: With B1 as the molecule, how does the IC50 (STAT1 protein [5]) read?
A: Its IC50 is 0.6 µM.

Q: What about the IC50 (STAT4 [6]) of the same molecule?
A: The IC50 was 10 µM.

B2: ASSGEEGY^PKPFQDLI (peptide)
peptide: ASSGEEG[pY]KPFQDLI
Q: B2 was tested. Which IC50 (STAT4 [6]) did it give?
A: Its IC50 is 30 µM.

B3: interferon-γ receptor-derived peptide sequence GY^PDKPHVL (peptide)
peptide: G[pY]DKPHVL
Q: For B3, which Kd (STAT1 protein [7]) is on record?
A: Its Kd is roughly 0.12 µM.
